Results reported in patent US9345765B2, “Diagnostic and therapeutic uses of moesin fragments” (SHANGHAI KEXIN BIOTECH CO., LTD., priority 2010, dated 2016).

B1: N-terminal FERM domain of moesin: N-terminal FERM domain of human moesin, amino acid residues 1-297 (SEQ ID NO:2), expressed in E. coli BL21(DE3) (protein)
chain: MPKTISVRVTTMDAELEFAIQPNTTGKQLFDQVVKTIGLREVWFFGLQYQDTKGFSTWLKLNKKVTAQDVRKESPLLFKFRAKFYPEDVSEELIQDITQRLFFLQVKEGILNDDIYCPPETAVLLASYAVQSKYGDFNKEVHKSGYLAGDKLLPQRVLEQHKLNKDQWEERIQVWHEEHRGMLREDAVLEYLKIAQDLEMYGVNYFSIKNKKGSELWLGVDALGLNIYEQNDRLTPKIGFPWSEIRNISFNDKKFVIKPIDKKAPDFVFYAPRLRINKRILALCMGNHELYMRRRKP
modifications: N-terminal FERM domain of human moesin protein

Assays:
Format in all cases: cell-based, human
platelets [1] = experiment: Stimulation of platelet activation: CD62P and CD63 expression in plasma by flow cytometry; conditions: for CD62P FD (Mnx) / CD63 FD (Mnx): agent alone in plasma of 12 healthy individuals, final conc. ADP 5 μM, antibody 20 μg/ml, FERM domain 2 mM
Method: The expressions of CD62P and CD63 are associated with platelet activation. Therefore, these two proteins can be used as indicators to characterize the profile of platelet activation. This experiment was performed in vitro to assess stimulation of platelet activation in the presence of various agents by detecting the expression levels of CD62P and CD63 using CD62P monoclonal antibody and CD63 monoclonal antibody.
Plasma samples were collected from 12 healthy individuals, and cultured at room temperature in the presence of various agents as described in Table 1 below for several minutes (e.g. 5 mins). The culture conditions were selected so that the platelets can be fully activated within about 10 mins. After that, CD62P monoclonal antibody and CD63 monoclonal antibody labeled with fluorescein isothiocyanate (FITC) were used to detect the expressed CD62P and CD63 in the plasma samples, and the fluorescence density (“FD”) of the plasma samples was detected using flow cytometry of Beckman Coulter EPICS-XL. The expression levels of the CD62P and CD63 were represented by the average value of fluorescence density detected.
The agents being tested in this assay are listed in Table 1 below, including ADP which is known as an agent stimulating platelet activation (Group 1), the anti-moesin N-terminal domain antibody (Group 2) and the N-terminal FERM domain of moesin (Group 3) which were both prepared according to Example 1.
The concentration of an agent listed in Table 1 is a final concentration of the agent in the plasma sample. A plasma sample without any of the test agents was tested as a control group. The results are listed in Table 1 below and also illustrated in FIG. 6.

platelets [2] = experiment: Platelet aggregation assay (Born method, transparency)
Method: Plasma samples were collected from 6 healthy individuals and mixed with 3.8% sodium citrate in the ratio of 9:1 (v/v) to prevent solidification of the plasma. The mixed plasma samples were then centrifuged to obtain a portion of platelet-rich plasma (“PRP”) and another portion of platelet-poor plasma (“PPP”). The PRP was diluted with PPP to obtain a plasma sample having a platelet count of 5×10^8 per milliliter as a testing plasma sample for later use.
The testing plasma sample was incubated in the presence of an inhibitor of platelet activation as described in Table 3 below for several minutes, and thereafter an activator of platelet activation as described in Table 3 below was added therein and the plasma sample was further incubated for another several minutes to obtain a final mixture. The final mixture was detected for blood aggregation by measuring the transparency of the sample using TYXN-91 Intelligent Blood Agglutometer according to the Born methods. The transparency of PRP in the presence of either ADP or antibody against the N-terminal domain of moesin was also detected as positive controls. A negative control containing no inhibitor was also tested.
The testing results which was shown as platelet aggregation rate (“PAR”) and platelet aggregation inhibition rate (“PAIR”) are listed in Table 3 below.
PAR is calculated by, 1) subtracting PPP's transparency with the testing group's transparency, and 2) dividing the result of step 1) by PPP's transparency and then multiplying 100%. PAIR is calculated by, 1) subtracting the PRP group's PAR with the testing group's PAR, and 2) dividing the result of step 1) by the PRP group's PAR and then multiplying 100%.
The RGDS was prepared according to a conventional peptide synthesis in solid phase and used herein with a concentration of 10 ug/ml in 0.01M PBS. The moesin fragments and anti-moesin antibodies used in this experiment were prepared according to Example 1. The concentration regarding an inhibitor as described in Table 3 below is a final concentration of the inhibitor in the testing plasma sample, and the concentration regarding the activator of ADP and the antibody against N-terminal FERM domain of moesin also refers to a final concentration in the testing plasma sample.

platelets [3] = experiment: Inhibition of platelet activation induced by activators: CD62P and CD63 expression by flow cytometry; design: key to CD62P FD (Mnx) / CD63 FD (Mnx): mean fluorescence density by flow cytometry; conditions: for effect on platelet activation induced by ADP (in words): activator ADP; for effect on platelet activation induced by the antibody against the N-terminal FERM domain of moesin (in words): activator anti-moesin N-terminal domain antibody; for CD62P FD (Mnx) / CD63 FD (Mnx): inhibitor first, n = 12
Method: This experiment is performed to assess the blocking effect of various inhibitors (i.e. test agents) on the platelet activation induced by various different activators.
The plasma samples were collected from 12 healthy individuals, and cultured in the presence of an inhibitor as described in Table 2 below for several minutes (e.g. 5 mins), and thereafter an activator of platelet activation was added therein and the plasma samples were further cultured for another several minutes (e.g. 5 mins). The culture conditions were the same as Example 2. After that, CD62P monoclonal antibody and CD63 monoclonal antibody labeled with FITC were used to detect the expressed CD62P and CD63 in the plasma samples, and the fluorescence density of the plasma samples was detected using flow cytometry of Beckman Coulter EPICS-XL. The expression levels of the CD62P and CD63 were represented by the average value of fluorescence density detected. A control group using 0.01M PBS instead of any inhibitor was also tested.
The peptide RGDS is known as an inhibitor of platelet activation that inhibits platelet's activation by competing with platelet activator combined-1 (PAC-1) to bind to glycoprotein (GP) IIb/IIIa complex on the surface of platelets. The RGDS was prepared according to a conventional peptide synthesis in solid phase and used herein with a concentration of 10 mg/ml in 0.01 M PBS. The moesin fragments and anti-moesin antibodies used in this experiment were prepared according to Example 1. As used in this experiment, the anti-moesin N-terminal domain antibody has a concentration of 20 μg/ml in 0.01M PBS, the N-terminal FERM domain has a concentration of 2 mM in 0.01M PBS, and the anti-moesin C-terminal domain has a concentration of 20 μg/ml in 0.01M PBS. The ADP used herein has a concentration of 5 μM in 0.01M PBS. The results are listed in Table 2 below and also illustrated in FIG. 7.

[4] = then activator ADP (50 μl, 5 μM)
[5] = then activator Anti-moesin N-terminal domain (50 μl, 20 μg/ml)
[6] = activator ADP (5 μM), inhibitor at final concentration of Table 3, n = 6
[7] = activator Anti-moesin N-terminal domain antibody (2 μg/mL), n = 6

| Molecule | CD62P FD (Mnx) (platelets [1]) | CD63 FD (Mnx) (platelets [1]) | PAR (%) of PRP with the activator alone (platelets [2]; PRP positive control, no inhibitor, ADP 5 μM or antibody 2 μg/mL, n = 6) [%] | effect on platelet activation induced by ADP (in words) (platelets [3]) | effect on platelet activation induced by the antibody against the N-terminal FERM domain of moesin (in words) (platelets [3]) | CD62P FD (Mnx) (platelets [3]; [4]) | CD63 FD (Mnx) (platelets [3]; [4]) | CD62P FD (Mnx) (platelets [3]; [5]) | CD63 FD (Mnx) (platelets [3]; [5]) | PAR (%) platelet aggregation rate (platelets [2]; [6]) [%] | PAIR platelet aggregation inhibition rate (platelets [2]; [7]) | PAR (%) platelet aggregation rate (platelets [2]; [7]) [%] | inhibition of platelet aggregation induced by the antibody against the N-terminal FERM domain of moesin (in words) (platelets [2]; activator anti-moesin N-terminal domain antibody) | stimulation of platelet activation (in words) (platelets [1]; agent alone, CD62P and CD63 expression vs control group) | inhibition of platelet aggregation induced by ADP (in words) (platelets [2]; activator ADP) | PAIR platelet aggregation inhibition rate (platelets [2]; [6]) [%] | PAIR platelet aggregation inhibition rate (platelets [2]; activator Anti-moesin N-terminal domain antibody (2 μg/mL), n = 6, listed as N-terminal domain) [%] |
| --- | --- | --- | --- | --- | --- | --- | --- | --- | --- | --- | --- | --- | --- | --- | --- | --- | --- |
| Nc1ncnc2c1ncn2[C@@H]1O[C@H](COP(=O)(O)OP(=O)(O)O)[C@@H](O)[C@H]1O [ADP, reference compound] | 12.88 | 11.31 | 45.62 | – | – | – | – | – | – | – | – | – | – | – | – | – | – |
| RGDS [solid-phase synthesis, reference compound] | – | – | – | can substantially inhibit | no blocking effect | 7.04 | 5.61 | 17.98 | 20.13 | 11.12 | 9.77% | 55.55 | much less inhibiting effect | – | – | – | – |
| B1 | 2.99 | 1.55 | – | no significant effect | can significantly block | 11.38 | 7.23 | 5.79 | 6.30 | 27.55 | approximately 90% | 6.03 | – | does not stimulate platelet activation | much less | 39.61 | 90.21 |
